Reference: PMC3694296, “11β-Hydroxysteroid dehydrogenase type 1 contributes to the balance between 7-keto- and 7-hydroxy-oxysterols in vivo” (Biochemical Pharmacology, 2013)

Assays:
[1] = substrate: C[C@]12CC(=O)[C@H]3[C@@H](CCC4=CC(=O)CC[C@@]43C)[C@@H]1CC[C@@H]2C(=O)CO; assay: reduction kinetics (Km) with recombinant enzyme, HPLC; format: biochemical, Mus musculus; conditions: NADPH
[2] = substrate: C[C@]12C[C@H](O)[C@H]3[C@@H](CCC4=CC(=O)CC[C@@]43C)[C@@H]1CC[C@@H]2C(=O)CO; assay: oxidation kinetics (Km) with recombinant enzyme, HPLC; format: biochemical, Mus musculus; conditions: NADP+

B1: 11β-hydroxysteroid dehydrogenase type 1 (murine 11βHSD1, m11βHSD1) (Mus musculus) (protein)
chain: NEEFRPEMLQGKKVIVTGASKGIGREMAYHLSKMGAHVVLTARSEEGLQKVVSRCLELGAASAHYIAGTMEDMTFAEQFIVKAGKLMGGLDMLILNHITQTSLSLFHDDIHSVRRVMEVNFLSYVVMSTAALPMLKQSNGSIAVISSLAGKMTQPMIAPYSASKFALDGFFSTIRTELYITKVNVSITLCVLGLIDTETAMKEISGIINAQASPKEECALEIIKGTALRKSEVYYDKSPLTPILLGNPGRKIMEFFSLRYYNKDMFVSN
notes: truncated form of recombinant m11βHSD1 protein (N23Δ)
Km [1]: 0.20 ± 0.25 µM | Vmax [1]: 8.56 ± 4.06 pmol/µg/min | Vmax/Km [1]: 42.8 L/ug/min x 10^-6 | Km [2]: 1.78 ± 0.56 µM | Vmax [2]: 4.82 ± 0.65 pmol/µg/min | Vmax/Km [2]: 2.7 L/ug/min x 10^-6
